Molecular target: PybHLH3: Nluc (pear 'Red Zaosu' (P. pyrifolia × P. communis))

- dual-luciferase assay, LUC/REN ratio of the PyUFGT promoter activated by PyMYB10 with PybHLH3; ratio of PyMYB107:PyMYB10 from 0:1 (0.48) to 1:1 (0.26) (LUC/REN ratio): 0.26
Substance: PyMYB107 (co-expressed as competitor) (natural protein)

— article PMC11215833
